B1: ASPP1: human ASPP1 protein (SEQ ID NO: 7), V5-tagged, expressed from CMV-driven plasmid; stimulates apoptotic function of p53 (protein, listed as Homo sapiens)
chain: MMPMILTVFLSNNEQILTEVPITPETTCRDVVEFCKEPGEGSCHLAEVWRGNERPIPFDHMMYEHLQIWGPRREEVKFFLRHEDSPTENSEQGGRQTQEQRTQRNVINVPGDKRTEYGVGNPRVELTLSELQDMAARQQQQIENQQQMLVAKEQRLHFLKQQERRQQQSISENEKLQKLKERVEAQENKLKKIRAMRGQVDYSKIMNGNLSAEIERFSAMFQEKKQEVQTAILRVDQLSQQLEDLKKGKLNGFQSYNGKLTGPAAVELKRLYQELQIRNQLNQEQNSKLQQQKELLNKRNMEVAMMDKRISELRERLYGKKIQLNRVNGTSSPQSPLSTSGRVAAVGPYIQVPSAGSFPVLGDPIKPQSLSIASNAAHGRSKSANDGNWPTLKQNSSSSVKPVQVAGADWKDPSVEGSVKQGTVSSQPVPFSALGPTEKPGIEIGKVPPPIPGVGKQLPPSYGTYPSPTPLGPGSTSSLERRKEGSLPRPSAGLPSRQRPTLLPATGSTPQPGSSQQIQQRISVPPSPTYPPAGPPAFPAGDSKPELPLTVAIRPFLADKGSRPQSPRKGPQTVNSSSIYSMYLQQATPPKNYQPAAHSALNKSVKAVYGKPVLPSGSTSPSPLPFLHGSLSTGTPQPQPPSESTEKEPEQDGPAAPADGSTVESLPRPLSPTKLTPIVHSPLRYQSDADLEALRRKLANAPRPLKKRSSITEPEGPGGPNIQKLLYQRFNTLAGGMEGTPFYQPSPSQDFMGTLADVDNGNTNANGNLEELPPAQPTAPLPAEPAPSSDANDNELPSPEPEELICPQTTHQTAEPAEDNNNNVATVPTTEQIPSPVAEAPSPGEEQVPPAPLPPASHPPATSTNKRTNLKKPNSERTGHGLRVRFNPLALLLDASLEGEFDLVQRIIYEVEDPSKPNDEGITPLHNAVCAGHHHIVKFLLDFGVNVNAADSDGWTPLHCAASCNSVHLCKQLVESGAAIFASTISDIETAADKCEEMEEGYIQCSQFLYGVQEKLGVMNKGVAYALWDYEAQNSDELSFHEGDALTILRRKDESETEWWWARLGDREGYVPKNLLGLYPRIKPRQRTLA
modifications: V5 tag
notes: stimulates apoptotic function of p53
B2: ASPP2: human ASPP2 protein (SEQ ID NO: 8), expressed from CMV-driven plasmid; stimulates apoptotic function of p53 (protein, listed as Homo sapiens)
chain: MMPMFLTVYLSNNEQHFTEVPVTPETICRDVVDLCKEPGESDCHLAEVWCGSERPVADNERMFDVLQRFGSQRNEVRFFLRHERPPGRDIVSGPRSQDPSLKRNGVKVPGEYRRKENGVNSPRMDLTLAELQEMASRQQQQIEAQQQLLATKEQRLKFLKQQDQRQQQQVAEQEKLKRLKEIAENQEAKLKKVRALKGHVEQKRLSNGKLVEEIEQMNNLFQQKQRELVLAVSKVEELTRQLEMLKNGRIDSHHDNQSAVAELDRLYKELQLRNKLNQEQNAKLQQQRECLNKRNSEVAVMDKRVNELRDRLWKKKAALQQKENLPVSSDGNLPQQAASAPSRVAAVGPYIQSSTMPRMPSRPELLVKPALPDGSLVIQASEGPMKIQTLPNMRSGAASQTKGSKIHPVGPDWSPSNADLFPSQGSASVPQSTGNALDQVDDGEVPLREKEKKVRPFSMFDAVDQSNAPPSFGTLRKNQSSEDILRDAQVANKNVAKVPPPVPTKPKQINLPYFGQTNQPPSDIKPDGSSQQLSTVVPSMGTKPKPAGQQPRVLLSPSIPSVGQDQTLSPGSKQESPPAAAVRPFTPQPSKDTLLPPFRKPQTVAASSIYSMYTQQQAPGKNFQQAVQSALTKTHTRGPHFSSVYGKPVIAAAQNQQQHPENIYSNSQGKPGSPEPETEPVSSVQENHENERIPRPLSPTKLLPFLSNPYRNQSDADLEALRKKLSNAPRPLKKRSSITEPEGPNGPNIQKLLYQRTTIAAMETISVPSYPSKSASVTASSESPVEIQNPYLHVEPEKEVVSLVPESLSPEDVGNASTENSDMPAPSPGLDYEPEGVPDNSPNLQNNPEEPNPEAPHVLDVYLEEYPPYPPPPYPSGEPEGPGEDSVSMRPPEITGQVSLPPGKRTNLRKTGSERIAHGMRVKFNPLALLLDSSLEGEFDLVQRIIYEVDDPSLPNDEGITALHNAVCAGHTEIVKFLVQFGVNVNAADSDGWTPLHCAASCNNVQVCKFLVESGAAVFAMTYSDMQTAADKCEEMEEGYTQCSQFLYGVQEKMGIMNKGVIYALWDYEPQNDDELPMKEGDCMTIIHREDEDEIEWWWARLNDKEGYVPRNLLGLYPRIKPRQRSLA
B3: iASPP: human iASPP protein (SEQ ID NO: 4), expressed from plasmid; inhibits apoptotic function of p53 (protein, listed as Homo sapiens)
chain: MWMKDPVARPLSPTRLQPALPPEAQSVPELEEVARVLAEIPRPLKRRGSMEQAPAVALPPTHKKQYQQIISRLFHRHGGPGPGGRSQSCPPSLRDLRPGQGPLLLPHQLPFHRPAPSQSSPPEQPQSMEMRSVLRKAGSPRKARRARLNPLVLLLDAALTGELEVVQQAVKEMNDPSQPNEEGITALHNAICGANYSIVDFLITAGANVNSPDSHGWTPLHCAASCNDTVICMALVQHGAAIFATTLSDGATAFEKCDPYREGYADCATYLADVEQSMGLMNSGAVYALWDYSAEFGDELSFREGESVTVLRRDGPEETDWWWAALHGQEGYVPRNYFGLFPRVKPQRSK

Key:
[1] = system: p53Pro72 and p53Arg72; conditions: RKO cells heterozygous for p53Pro72/p53Arg72
Protocol: For western blotting, cells were lysed in either NP40 lysis buffer or luciferase reporter lysis buffer. Between 15-100 μg of protein extract was loaded on SDS-PAGE gels. For immunoprecipitation, cells were lysed in NP40 lysis buffer and pre-cleared with protein G beads for 1 hour at 4° C. The protein concentration was determined and then 1-2 mg of the extract was incubated with antibody pre-bound to protein G beads for 4 hours or overnight at 4° C. The beads were washed twice in NP40 lysis buffer and twice in NET buffer. The IP beads were mixed with 5× sample buffer and loaded onto an SDS-PAGE gel. The gels were wet transferred on to Protran nitrocellulose membrane and the resulting blots were first incubated with primary antibody and subsequently with the appropriate secondary HRP conjugated antibody (Dako). The blot was exposed to hyperfilm following the use of ECL substrate solution (Amersham Life Science).
p53Pro72, p53Arg72, ASPP1, ASPP2 and iASPP were in vitro translated and labelled with ^35S -Methionine using the TNT T7 Quick coupled Transcription/Translation System (Promega). The lysates containing indicated proteins were incubated at 30° C. for 1 hour. The anti-ASPP1, ASPP2 or iASPP antibodies immobilised on protein G agarose beads were added to the binding reactions and incubated on a rotating wheel at 4° C. for 16 hours. The beads were then washed with PBS. The bound proteins were released in SDS gel sample buffer and analysed by 10% SDS-polyacrylamide gel electrophoresis (PAGE). Results were visualised using autoradiography for ^35S -Methionine labelled proteins. For immunoprecipitation using cell lysates, the expression of endogenous ASPP1, ASPP2, iASPP, p53Pro72 and p53Arg72 were detected by western blot using antibodies specific to these proteins derived from different species from that used in IP.

[2] = biological target: T1, p53Arg72 (Homo sapiens, UniProt P04637, P72R); assay: Transactivation assay (luciferase reporter), p53Arg72; type: cell-based; conditions: Saos-2 cells, Bax promoter, co-transfection
T1 construct: expressed in transfected cells; host or cells: Saos-2 or H1299 cells
Protocol: (§1) Saos-2 or H1299 cells (5×10^5) were plated 24 hours prior to transfection in 6 cm dishes. All transactivation assays contained 1 μg of reporter plasmid. 50 ng of p53Pro72 or p53Arg72, 4 μg of ASPP1 or ASPP2, 2 μg of iASPP expression plasmids were used as indicated. In FIG. 4C cells were also co-transfected with 3 μg of pSuper plasmid containing iASPP RNAi as indicated. Cells were lysed in Reporter Lysis Buffer 16-24 hours after transfection and assayed using the Luciferase Assay kit (Promega, Wis., USA). The fold activation of a particular reporter was determined by the activity of the transfected plasmid divided by the activity of vector alone.

[3] = biological target: T2, p53Pro72 (Homo sapiens, UniProt P04637); assay: Flow cytometry apoptosis assay, p53Pro72; type: cell-based
T2 construct: expressed in transfected cells; host or cells: Saos-2 or H1299 cells
Protocol: Cells (10^6) were plated 24-48 hours prior to transfection in 10 cm plates. All cells were transfected with 2 μg of a plasmid expressing CD20 as a transfection marker. Transfection consisted of 1 μg of human p53Pro72 or p53Arg72, 10 μg of ASPP1 or ASPP2, 4 μg of iASPP and 8 μg of pSuper plasmid containing RNAi of iASPP as indicated. 36 hours after the transfection, both attached and floating cells were harvested and analysed as described.

[4] = biological target: T2, p53Pro72; assay: Transactivation assay (luciferase reporter), p53Pro72; type: cell-based; conditions: Saos-2 cells; for transcriptional activity of p53Pro72 on Bax promoter: co-transfection
Protocol: as §1

Row | Molecule | co-immunoprecipitation of p53Pro72 compared with p53Arg72 [1] | transactivation function of p53Arg72 [2] | apoptotic function of p53Pro72 ([3]; H1299 cells) | apoptotic function of p53Pro72 ([3]; Saos-2 cells) | transcriptional activity of p53Pro72 on Bax promoter [4] | transactivation function of p53Pro72 ([4]; promoter not stated in text (FIG. 2C))
1 | B1 | to a lesser extent | very little effect | enhanced | selectively enhance | significantly enhanced | –
2 | B2 | Selective binding | very little effect | enhanced | selectively enhance | significantly enhanced | –
3 | B3 | clearly larger | – | – | selectively inhibited | – | selectively inhibited

Reference: patent US20050123977A1, “Assay and treatment” (Ludwig Institute for Cancer Research, priority 2003, published 2005)
